Experimental findings from the supplement of paper PMC9170038 are described below.

The subject of series [1] is MS2 coat protein. Kind of series: apparent KD of MS2 coat protein, switch ON state; designed switch direction (-1 OFF switch, 1 ON switch): 1; higher = weaker reporter binding. The following applies: FMN input: 0 or 200 uM; Eterna round: R93 (includes R88 designs). Put shortly: (§1)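 Apparent KD was obtained for each design as the median of normalised binding-curve fits over its clusters. RNA switches transcribed on-chip from Illumina sequencing clusters were titrated with SNAP-549-labelled MS2 coat protein (twofold steps, 0.7 or 1.5 nM to 3 µM) in 100 mM Tris-HCl pH 7.5, 80 mM KCl, 4 mM MgCl2, without or with constant ligand.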

Series [2] has as its system MS2 coat protein. Kind of series: apparent KD of MS2 coat protein, switch OFF state (with FMN for OFF switches, without FMN for ON switches); designed switch direction (-1 OFF switch, 1 ON switch): 1; higher = weaker reporter binding. To be noted: FMN input: 0 or 200 uM; Eterna round: R93 (includes R88 designs). Put shortly: as §1

As to “AAAUAAAUGACUAAGGAUAUAUCGGAGAAAACAUGAGGAUCACCCAUGUAAUAAUAAAAAGGGUGAUAGAAGGUAGUCAACAAAC [Mod 1 of Pariah 4 by Hyphema in Round 1]”, the “apparent KD of MS2 coat protein” value in series [1] was 37.3 nM; in series [2], 63.6 nM.

Regarding “AAAUAAAUGACUCAGGAUAUAUCAUAGAGUACAUGAGGAUCACCCAUGUUUUAAUAACAUGUUUGGUAGAAGGGAGUCAAUAAAU [LROPPY Same State 2 - v06_deltaG=1.99]”, the figures for the “apparent KD of MS2 coat protein” value in series [1] and in series [2] were 25.8 nM and 127 nM, respectively.

“AAAUAACAUGAGGAUCACCCAUGUUGCAGCGGUUGAGGAUAUGUGGGUGAAAAUAGCAUGGCAGAAGGCGAGUGUA [SameState1 Malc#26]”: the “apparent KD of MS2 coat protein” value in series [1] amounted to 71.3 nM; in series [2], 71.9 nM.

On to “AACAAUCUAUCUGAGGAUAUCAAAAAAAAAACAUGAGGAUCACCCAUGUCUAGGAAAACUAGAUAUGAGAAGGCAGAUAGAUUGA [SS1 - 593]”, for which the entries for the “apparent KD of MS2 coat protein” value in series [1] and in series [2] were 7.93 nM and 49.6 nM, respectively.

Take “AACAAUCUAUCUGAGGAUAUCAAGUCAAAGACAUGAGGAUCACCCAUGUGCAGGAAAACUGCACUUGAGAAGGCAGAUAGAUUGA [SS2: 1109]”: the “apparent KD of MS2 coat protein” value in series [1] is 12.3 nM; in series [2], 9.63 nM.

For “AACAAUCUAUCUGAGGAUAUCAUGUAAAAGACAUGAGGAUCACCCAUGUAGCAGGAAACUGCACAUGAGAAGGCAGAUAGAUUGA [SS2: 1124]”, the “apparent KD of MS2 coat protein” value in series [1] worked out at 15.9 nM; in series [2], 19.6 nM.

“AACAAUCUAUCUGAGGAUAUCAUUUCAAAGACAUGAGGAUCACCCAUGUCCAGGAAAACUGGAAAUGAGAAGGCAGAUAGAUUGA [SS2: 1106]”: the “apparent KD of MS2 coat protein” value in series [1] came out at 11.7 nM; in series [2], 9.31 nM.

For “AACAAUCUAUCUGAGGAUAUGUGUCGAAAGACAUGAGGAUCACCCAUGUAAAAACAUGGAAAGAUACAGAAGGCAGAUAGAUUGA [SS2: 1157]”, the “apparent KD of MS2 coat protein” value was determined as 28.4 nM in series [1] and 107 nM in series [2].

Turning to “AACAUACAUGAGGAUCACCCAUGUUCCGGCAGGUCAGGAUAUGUAUCGAAAGAGUUAUAAACAGAAGGGACAUAAA [JR_SS001_Sub010]”, the “apparent KD of MS2 coat protein” value is 32.4 nM in series [1] and 56.9 nM in series [2].

On to “AACCGGGAGAAGCAGGAUAUUGCCUCUUCAACAUGAGGAUCACCCAUGUAAGUAAAUUGACGAUACAAGAAGGGCUGCUCCUUAC [Raatgees]”, for which the entries for the “apparent KD of MS2 coat protein” value in series [1] and in series [2] were 30.5 nM and 74.3 nM, respectively.

For the sequence “AAGAAACAUGAGGAUCACCCAUGUAAAUAAAUCUCAGGAUAUCGUACAUGGAAGAUCUAACGAGAAGGGAGAAGAA [Pariah 1 (MS2 Riboswitches - Same State 1)]”, the “apparent KD of MS2 coat protein” value was 85.7 nM in series [1] and 63.4 nM in series [2].

With “AAGAAACAUGAGGAUCACCCAUGUAAGAUAAACACAGGAUAUGCGAAAAUAAAUAAAUAAGCAGAAGGGUGAAGAA [Mat - Same State 1 - Tesla mod - 66]”, the “apparent KD of MS2 coat protein” value in series [1] was 14.8 nM; in series [2], 42.4 nM.

With “AAGAAACAUGAGGAUCACCCAUGUAGAAAUAUGGGAGGAUAUACAAGGACGAAAGUCAAGGUAGAAGGCCUAAGAA [Mat - Same State 1 - Meechl mod - D132]”, the “apparent KD of MS2 coat protein” value is 20.7 nM in series [1] and 112 nM in series [2].

For the sequence “AAGAAACAUGAGGAUCACCCAUGUCAAGAGAGACUAGGAUAUCUGAAUUAAUUAAAUUAAGGAGAAGGAGUGAAAA [71%, Same state of confusion2, 2]”, the “apparent KD of MS2 coat protein” value is 35.9 nM in series [1] and 88.6 nM in series [2].

Turning to “AAGAAACAUGAGGAUCACCCAUGUGGAAAUAUGGGAGGAUAUACAAGGACGUAAGUCAAGGUAGAAGGCCUAAGAA [Mat - Same State 1 - Meechl mod - D138]”, the “apparent KD of MS2 coat protein” value in series [1] was found to be 21.5 nM; in series [2], 134 nM.

Regarding “AAGAAAGUUUACGAGGAUAUGUUCCGCAUAACAUGAGGAUCACCCAUGUGAACAAGAAAGGCGACGCAGAAGGCGUGAGCAAAGA [Atanansori]”, the “apparent KD of MS2 coat protein” value in series [1] stood at 26.1 nM; in series [2] it was 403 nM.

As to “AAGAGACAUGAGGAUCACCCAUGUAGGAUUAUGGGAGGAUAUACAAAGACGAGAGUCAGAGUAGAAGGCCUAGGAA [salish99-ss1-129(!)]”, the “apparent KD of MS2 coat protein” value stood at 24.5 nM in series [1] and 65.1 nM in series [2].

As to “AAGAUACAUGAGGAUCACCCAUGUCACCUCACACGAGGAUAUCUGUGCAGUACUCAGUACGGAGAAGGCGUGGAAA [Mat - Same State 1 - Hyphema mod - D98]”, the entries for the “apparent KD of MS2 coat protein” value in series [1] and in series [2] were 25 nM and 56.4 nM, respectively.

As for “AAUACACAUGAGGAUCACCCAUGUAGAAAGAAGGCAGGAUAUCAGAUCCACAUGUGAUAAUGAGAAGGGCCAAUAA [SS 1 Tesla 9]”, the “apparent KD of MS2 coat protein” value is 21.1 nM in series [1] and 102 nM in series [2].
